Reference: patent publication US20180346602A1

B1: anti-variant (human) Fc-region antibody M1.3.17 (antibody, V domains shown)
VH: EVKLLESGGGLVQPGGSLKLSCAASGIDFRRYWMNWVRQAPGKGLEWIGEIDPDSSTINYTPSLKDKFIISRDNAKNTMYLQMRKVRSEDTALYYCARPYDYGAWFAYWGQGTLVTVSA
VL: QAVVTQESALTTSPGETVTLTCRSTTGAVTTSNYANWVQEKPDHLFTGLIGGTNKRAPGVPARFSGSLIGDKAALTITGAQTEDEAIYFCALWYSDHWVFGGGTKLTVL
B2: anti-AAA variant Fc-region antibody M1.6.22 (antibody, V domains shown)
VH: EVQLVESGGDLVKPGGSLKLSCAASGFTFSSYGMSWVRQTPDKRLEWVATISSGGSYIYYPDSVKGRFTISRDNAKNTLYLQMSSLKSEDTAMYYCARLGMITTGYAMDYWGQGTSVTVSS
VL: DVLMTQTPLSLPVSLGDQASISCRSSQTIVHSTGHTYLEWFLQKPGQSPKLLIYKVSNRFSGVPDRFSGSGSGTDFTLKISRVEAEDLGVYYCFQGSHVPYTFGGGTKLEIK
B3: anti-variant (human) Fc-region antibody M1.7.24 (antibody, V domains shown)
VH: EVKLLESGGGLVQPGGSLKLSCAASGFDFSRYWMNWVRQAPGKGLEWIGEITPDSSTINYTPSLKDKFIISRDNAKNTLYLQMIKVRSEDTALYYCVRPYDYGAWFASWGQGTLVTVSA
VL: QAVVTQESALTTSPGETVTLTCRSSTGAVTTSNYANWVQEKPDHLFTGLIGGTNKRAPGVPARFSGSLIGDKAALTITGAQTEDEAIYFCALWYSNHWVFGGGTKLTVL

Columns and labels:
[1] = target: anti-VEGF/ANG2 antibody (IgG1 subclass with mutations P329G/L234A/L235A/I253A/H310A/H435A) (human) [IgG part: P01857]; assay: sandwich ELISA assay B; capture on SA plate; tracer M1.7.10-Dig; analyte 0 ng/mL (blank)
[2] = target: anti-VEGF/ANG2 antibody (IgG1 subclass with mutations P329G/L234A/L235A) (human) [IgG part: P01857]; assay: as above
[3] = target: anti-P-Selectin antibody (IgG4 subclass with mutations S228P/L235E) (human) [IgG part: P01861]; assay: as above
[4] = target: anti-IGF-1R antibody (IgG1 subclass with mutations I253A/H310A/H435A) (human) [IgG part: P01857]; assay: as above
[5] = target: anti-VEGF/ANG2 antibody (IgG1 subclass with mutations P329G/L234A/L235A) [IgG part: P01857]; assay: sandwich ELISA assay A; capture M1.7.10-Bi; antibody 2 at 2 ng/mL
[6] = target: anti-VEGF/ANG2 antibody (IgG1 subclass with mutations P329G/L234A/L235A) (human) [IgG part: P01857]; assay: sandwich ELISA assay B; capture on SA plate; tracer M1.7.10-Dig; analyte 13 ng/mL
[7] = target: anti-VEGF/ANG2 antibody (IgG1 subclass with mutations P329G/L234A/L235A/I253A/H310A/H435A) (human) [IgG part: P01857]; assay: sandwich ELISA assay B; capture on SA plate; tracer M1.7.10-Dig; analyte 6 ng/mL
[8] = target: anti-VEGF/ANG2 antibody (IgG1 subclass with mutations P329G/L234A/L235A) (human) [IgG part: P01857]; assay: as above
[9] = target: anti-P-Selectin antibody (IgG4 subclass with mutations S228P/L235E) (human) [IgG part: P01861]; assay: as above
[10] = target: anti-IGF-1R antibody (IgG1 subclass with mutations I253A/H310A/H435A) (human) [IgG part: P01857]; assay: as above
[11] = target: anti-VEGF/ANG2 antibody (IgG1 subclass with mutations P329G/L234A/L235A/I253A/H310A/H435A) (human) [IgG part: P01857]; assay: sandwich ELISA assay B; capture on SA plate; tracer M1.7.10-Dig; analyte 50 ng/mL
[12] = target: anti-VEGF/ANG2 antibody (IgG1 subclass with mutations P329G/L234A/L235A) (human) [IgG part: P01857]; assay: as above
[13] = target: anti-P-Selectin antibody (IgG4 subclass with mutations S228P/L235E) (human) [IgG part: P01861]; assay: as above
[14] = target: anti-IGF-1R antibody (IgG1 subclass with mutations I253A/H310A/H435A) (human) [IgG part: P01857]; assay: as above
[15] = target: anti-IGF-1R antibody (IgG1 subclass with mutations I253A/H310A/H435A) [IgG part: P01857]; assay: sandwich ELISA assay A; capture M1.7.10-Bi; antibody 3 at 13 ng/mL
[16] = target: anti-VEGF/ANG2 antibody (IgG1 subclass with mutations P329G/L234A/L235A/I253A/H310A/H435A) (human) [IgG part: P01857]; assay: sandwich ELISA assay B; capture on SA plate; tracer M1.7.10-Dig; analyte 100 ng/mL
[17] = target: anti-VEGF/ANG2 antibody (IgG1 subclass with mutations P329G/L234A/L235A) (human) [IgG part: P01857]; assay: as above
[18] = target: anti-P-Selectin antibody (IgG4 subclass with mutations S228P/L235E) (human) [IgG part: P01861]; assay: as above
[19] = target: anti-IGF-1R antibody (IgG1 subclass with mutations I253A/H310A/H435A) (human) [IgG part: P01857]; assay: as above
[20] = target: anti-VEGF/ANG2 antibody (wild-type IgG1 subclass) [IgG part: P01857]; assay: sandwich ELISA assay A; capture M1.7.10-Bi; antibody 5 at 13 ng/mL
[21] = target: anti-VEGF/ANG2 antibody (IgG1 subclass with mutations P329G/L234A/L235A/I253A/H310A/H435A) (human) [IgG part: P01857]; assay: sandwich ELISA assay B; capture on SA plate; tracer M1.7.10-Dig; analyte 3 ng/mL
[22] = target: anti-VEGF/ANG2 antibody (IgG1 subclass with mutations P329G/L234A/L235A) (human) [IgG part: P01857]; assay: as above
[23] = target: anti-P-Selectin antibody (IgG4 subclass with mutations S228P/L235E) (human) [IgG part: P01861]; assay: as above
[24] = target: anti-IGF-1R antibody (IgG1 subclass with mutations I253A/H310A/H435A) (human) [IgG part: P01857]; assay: as above

Binder	signal [OD405 nm] [1] [OD405 nm]	signal [OD405 nm] [2] [OD405 nm]	signal [OD405 nm] [3] [OD405 nm]	signal [OD405 nm] [4] [OD405 nm]	signal [OD405 nm] [5] [OD405 nm]	signal [OD405 nm] [6] [OD405 nm]	signal [OD405 nm] [7] [OD405 nm]	signal [OD405 nm] [8] [OD405 nm]	signal [OD405 nm] [9] [OD405 nm]	signal [OD405 nm] [10] [OD405 nm]	signal [OD405 nm] [11] [OD405 nm]	signal [OD405 nm] [12] [OD405 nm]	signal [OD405 nm] [13] [OD405 nm]	signal [OD405 nm] [14] [OD405 nm]	signal [OD405 nm] [15] [OD405 nm]	signal [OD405 nm] [16] [OD405 nm]	signal [OD405 nm] [17] [OD405 nm]	signal [OD405 nm] [18] [OD405 nm]	signal [OD405 nm] [19] [OD405 nm]	signal [OD405 nm] [20] [OD405 nm]	other results
B1	0.035	0.038	0.049	0.045	0.669	0.217	0.035	0.196	0.048	0.045	0.035	0.215	0.049	0.048	0.04	0.035	0.216	0.048	0.05	0.038	signal [OD405 nm] [21]: 0.036 OD405 nm; signal [OD405 nm] [22]: 0.165 OD405 nm; signal [OD405 nm] [23]: 0.05 OD405 nm; signal [OD405 nm] [24]: 0.047 OD405 nm
B2	0.047	0.038	0.038	0.037	0.047	0.066	0.039	0.053	0.04	2.73	0.05	0.127	0.047	2.9	1.74	0.052	0.21	0.051	2.9	0.045	signal [OD405 nm] [21]: 0.039 OD405 nm; signal [OD405 nm] [22]: 0.044 OD405 nm; signal [OD405 nm] [23]: 0.039 OD405 nm; signal [OD405 nm] [24]: 2.26 OD405 nm
B3	0.049	0.046	0.035	0.04	1.13	3.15	0.053	2.98	0.037	0.039	0.06	3.17	0.043	0.064	0.044	0.057	3.23	0.05	0.098	0.042	signal [OD405 nm] [21]: 0.04 OD405 nm; signal [OD405 nm] [22]: 2.51 OD405 nm; signal [OD405 nm] [23]: 0.031 OD405 nm; signal [OD405 nm] [24]: 0.046 OD405 nm
